Results on five substances are retold here after patent publication US20190211097A1.

In this experiment the target is human CD32a (FcgammaRIIa) on washed human platelets (human) (UniProt P12318). The experiment is described as follows: cell-based or functional assay.

A value given as a limit tells only on which side of the number the result lay.

Chain of human CD32a (FcgammaRIIa) on washed human platelets (human) (P12318 34-317 limits assumed): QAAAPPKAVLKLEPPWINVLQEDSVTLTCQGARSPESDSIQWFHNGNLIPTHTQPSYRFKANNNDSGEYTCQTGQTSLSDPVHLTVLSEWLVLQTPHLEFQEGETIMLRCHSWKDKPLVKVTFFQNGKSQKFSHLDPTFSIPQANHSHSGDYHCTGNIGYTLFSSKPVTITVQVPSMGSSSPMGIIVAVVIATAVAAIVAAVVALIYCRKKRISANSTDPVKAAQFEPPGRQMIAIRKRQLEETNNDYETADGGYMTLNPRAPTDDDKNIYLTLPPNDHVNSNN
Chain of M90 anti-CD40L mAb + M91 anti-CD40L mAb + CD40L immune complex (a polyclonal immune complex) (P29965 113-261, one chain of several): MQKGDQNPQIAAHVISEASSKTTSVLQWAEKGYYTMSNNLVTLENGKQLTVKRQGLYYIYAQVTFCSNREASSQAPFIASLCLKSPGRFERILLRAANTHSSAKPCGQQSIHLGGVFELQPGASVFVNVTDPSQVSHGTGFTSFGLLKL
Chain of M90 anti-CD40L mAb + CD40L immune complex (P29965 113-261, one chain of several): as above

“deglycosylated native mouse IV.3 IgG2b mAb (antibody)” yielded a mAb concentration that blocked 250 nM M90+CD40L IC-induced platelet aggregation of 7 nM.

In turn, “effector-deficient humanized IV.3.1 IgG1 E269R mAb (antibody)” registered a mAb concentration that blocked 250 nM HIT-like IC-induced platelet aggregation of 40 nM, a mAb concentration that blocked 500 nM M90+CD40L IC-induced platelet aggregation of 6 nM, a mAb concentration that blocked 1000 nM M90+M91+CD40L IC-induced platelet aggregation of 25 nM and a mAb concentration that blocked APS-like IC-induced platelet aggregation of 33 nM. Also, the mAb concentration that did not inhibit 500 nM M90+CD40L IC-induced platelet aggregation turned out to be 2 nM; the mAb concentration that inhibited 500 nM M90+CD40L IC-induced platelet aggregation worked out at 3 nM; the platelet activation by the combination of hIV.3.1 (25 nM), hAT-10 (90 nM) and MDE-8 (75 nM), all IgG1 E269R was 25 nM; the platelet aggregation by the combination of hAT-10 (2 nM), hIV.3.1 (150 nM) and MDE-8 (150 nM), all IgG1 E269R came to 150 nM.

As to “native chimeric IV.3 human IgG1 mAb (antibody)”, the mAb concentration needed to block 500 nM M90+CD40L IC-induced platelet aggregation is under 5 nM.

Regarding “M90 anti-CD40L mAb + CD40L immune complex (from UniProt P29965 113-261)”, the washed human platelet aggregation induced by the IC (IC concentration) is 250 nM.

As for “M90 anti-CD40L mAb + M91 anti-CD40L mAb + CD40L immune complex (a polyclonal immune complex) (from UniProt P29965 113-261)”, the washed human platelet aggregation induced by the IC (IC concentration) was 1000 nM.
